Here are results for three proteins from paper PMC8748767 (Nature Communications, 2022).

The chains are these.
B1: Tyrosine hydroxylase deletion mutant lacking the N-terminal 43 residues (THNΔ43) (domain or fragment)
chain: not shown
notes: human tyrosine hydroxylase isoform TH1 lacking the N-terminal 43 residues; numbers count on: isoform TH1; source: recombinant, construct derived from pETMBP1a/TH (Genscript), expressed and purified essentially as TH; not shown: His, N-terminal, cleaved; MBP, N-terminal, cleaved
B2: Tyrosine hydroxylase deletion mutant with the entire N-terminal removed (THNΔ70) (domain or fragment)
chain: not shown
notes: human tyrosine hydroxylase isoform TH1 with the entire N-terminal tail (residues 1-70) removed; numbers count on: isoform TH1; also called THΔN70; source: recombinant, construct derived from pETMBP1a/TH (Genscript), expressed and purified essentially as TH; not shown: His, N-terminal, cleaved; MBP, N-terminal, cleaved
B3: Tyrosine hydroxylase deletion mutant with the first 35 residues deleted (THNΔ35) (domain or fragment)
chain: not shown
notes: human tyrosine hydroxylase isoform TH1 with the first 35 residues deleted; numbers count on: isoform TH1; also called THΔN35; THΔ35; source: recombinant, construct derived from pETMBP1a/TH (Genscript), expressed and purified essentially as TH; not shown: His, N-terminal, cleaved; MBP, N-terminal, cleaved

This data set concerns the molecule itself. The data set can be described thus: SEC; preparative size-exclusion chromatography, HiLoad Superdex 200 prep grade (1.6 cm × 60 cm), 20 mM Na-Hepes pH 7, 200 mM NaCl.
For the protein B1, the “stoichiometry N” value was found to be 4.

For B2, the “stoichiometry N” value was found to be 4.

For the protein B3, the “stoichiometry N” value turned out to be 4.
